In US20170114104A1 (KOREA ADVANCED INSTITUTE OF SCIENCE AND TECHNOLOGY, published 2017):
Substitutions are numbered along the chain they refer to. Numbers in names are those of the source.

Columns and labels:
[1] = biological target: T1, Biotinylated green fluorescent protein (biotin-GFP) (site-specifically biotinylated in the N-terminal biotinylation peptide (AP, SEQ ID NO: 4) by biotin ligase BirA); assay: 15 % native-PAGE gel mobility shift, fluorescence of biotin-GFP [a]
T1 construct: Negatively charged GFP with the N-terminal AP biotinylation peptide

[2] = biological target: T1, Biotinylated green fluorescent protein …; assay: native-PAGE off-rate under excess biotin, 45 °C
[3] = biological target: T2, Biotinylated protein G (biotin-protein G) (site-specifically biotinylated in the N-terminal biotinylation peptide (AP, SEQ ID NO: 4) by BirA; labelled with atto532); assay: native-PAGE off-rate under excess biotin, 37 °C
T2 construct: About 12 kDa protein G with the N-terminal AP peptide; also called biotin-protein G-atto532
T2 chain: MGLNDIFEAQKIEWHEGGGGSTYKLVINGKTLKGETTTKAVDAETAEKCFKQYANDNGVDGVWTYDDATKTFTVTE

[4] = biological target: T1, Biotinylated green fluorescent protein …; assay: native-PAGE off-rate under excess biotin, 37 °C
[5] = biological target: T1, Biotinylated green fluorescent protein …; assay: native-PAGE off-rate under excess biotin, 45 °C; reference streptavidin
[6] = biological target: T1, Biotinylated green fluorescent protein …; assay: native-PAGE off-rate under excess biotin, 37 °C; remark: listed apart in the source

B1: Monomeric rhizavidin with one mutation (1M: S69R) (designed binder)
chain: FDASNFKDFSSIASASSSWQNQSGSTMIIQVDSFGNVSGQYVNRAQGTGCQNSPYPLTGRVNGTFIAFRVGWNNSTENCNSATGWTGYAQVNGNNTEIVTSWNLAYEGGSGPAIEQGQDTFQYVPTTE
B1: binds [1].

B2: Monodin (MA) (designed binder)
chain: B1 chain with S23H, Q46E, A67D, R69S, G71K, A82N, G84Q, S101R, A105K, E115W
notes: Expressed from pET21a and purified on Ni-NTA (His6 tag); also called mRA E115W/S23H/Q46E
In the case of B2, the koff [2] is reported as 6.4e-05 s⁻¹, the koff [3] is reported as 4.6e-05 s⁻¹ and the koff [4] is reported as 2.3e-05 s⁻¹. For the same binder, the “fold faster off-rate than tetrameric streptavidin” value [5] was 3.4 fold and the dissociation half-life [6] was 8.3 h.

B3: Rhizavidin (RA) (other)
chain: B1 chain with R69S
notes: Homodimer; Purified on Ni-NTA; also called dimeric rhizavidin; wild type rhizavidin
Work on B3 yielded a koff [2] of 6e-05 s⁻¹, a koff [3] of 3.2e-05 s⁻¹ and a koff [4] of 5e-05 s⁻¹. It also gave a dissociation half-life [6] of 3.8 h.
